Source: US20120077964A1 (Merck Sharp & Dohme, published 2012)
Like-named read-outs stand apart in the source and are kept apart here. Each block holds one binder with its values, some of them ahead of it.

Key:
Assay in all cases: cell-based or functional assay
[1] = biological target: T1, recombinant human PCSK9, V5-, His-tagged (human, UniProt Q8NBP7 31-692, limits assumed)
[2] = biological target: T1, recombinant human PCSK9, V5-, His-tagged; remark: listed apart in the source
[3] = biological target: T1, recombinant human PCSK9, V5-, His-tagged; remark: listed apart in the source
[4] = biological target: T1, recombinant human PCSK9, V5-, His-tagged; remark: listed apart in the source
[5] = biological target: T1, recombinant human PCSK9, V5-, His-tagged; remark: listed apart in the source

T1 sequence (Q8NBP7 31-692 limits assumed): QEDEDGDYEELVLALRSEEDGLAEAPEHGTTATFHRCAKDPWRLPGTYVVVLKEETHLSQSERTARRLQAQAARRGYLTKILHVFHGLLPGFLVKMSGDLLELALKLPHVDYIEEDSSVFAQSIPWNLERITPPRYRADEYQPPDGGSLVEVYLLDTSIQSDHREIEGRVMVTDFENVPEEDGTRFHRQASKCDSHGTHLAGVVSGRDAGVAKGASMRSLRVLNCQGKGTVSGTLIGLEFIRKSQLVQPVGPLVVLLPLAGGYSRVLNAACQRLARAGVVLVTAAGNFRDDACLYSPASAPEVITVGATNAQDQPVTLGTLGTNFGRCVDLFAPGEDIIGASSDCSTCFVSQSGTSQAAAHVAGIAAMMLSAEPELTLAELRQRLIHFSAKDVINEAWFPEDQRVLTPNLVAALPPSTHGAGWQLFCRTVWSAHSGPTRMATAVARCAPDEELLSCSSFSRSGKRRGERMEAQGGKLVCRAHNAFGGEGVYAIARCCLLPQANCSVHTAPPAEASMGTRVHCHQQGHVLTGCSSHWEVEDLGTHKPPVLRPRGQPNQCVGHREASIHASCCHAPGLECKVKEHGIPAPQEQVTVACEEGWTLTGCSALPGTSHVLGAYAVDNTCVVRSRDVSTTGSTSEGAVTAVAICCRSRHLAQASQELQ

- IC50: Fab titrated against PCSK9 fixed at 25 µg/ml, recovery of cellular diI-LDL uptake (Exopolar assay) [1]: 1.25 µM
B1: 3BX5C01 Fab (Fab, V domains shown)
VH: QVQLVQSGAEVKKPGESLKISCKGSGYSFTSYGISWVRQMPGKGLEWMGMIDPSDSFTTYSPSFQGQVTISADKSISTAYLQWSSLKASDTAMYYCARGYYFTYALQPMDHWGQGTLVTVSS
VL: DIELTQPPSVSVAPGQTARISCSGDNLRDYIVHWYQQKPGQAPVLVIYDDSNRPSGIPERFSGSNSGNTATLTISGTQAEDEADYYCGFDNGGDIDVFGGGTKLTVLG

- IC50: Fab titrated against PCSK9 fixed at 25 µg/ml, recovery of cellular diI-LDL uptake (Exopolar assay) [2]: 267 nM
B2: 1CX1G08 Fab (Fab, V domains shown)
VH: QVQLVESGGGLVQPGGSLRLSCAASGFTFSDYWVSWVRQAPGKGLEWVSFISYDGSSTYYADSVKGRFTISRDNSKNTLYLQMNSLRAEDTAVYYCARTYFEGVDVWGQGTLVTVSS
VL: DIELTQPPSVSVAPGQTARISCSGDNIGTYYVHWYQQKPGQAPVLVIYDDSNRPSGIPERFSGSNSGNTATLTISGTQAEDEADYYCGTWDNTSFNLVFGGGTKLTVLG

- IC50: Fab titrated against PCSK9 fixed at 25 µg/ml, recovery of cellular diI-LDL uptake (Exopolar assay) [3]: 127 nM
B3: 3CX4B08 Fab (Fab, V domains shown)
VH: QVQLVESGGGLVQPGGSLRLSCAASGFTFSNYTMNWVRQAPGKGLEWVSFISSSSSETYYADSVKGRFTISRDNSKNTLYLQMNSLRAEDTAVYYCARGYGDMVDLWGQGTLVTVSS
VL: DIELTQPPSVSVAPGQTARISCSGDSIPTYYVAWYQQKPGQAPVLVIYSDTDRPSGIPERFSGSNSGNTATLTISGTQAEDEADYYCQSFDNHGYHVFGGGTKLTVLG

- IC50: Fab titrated against PCSK9 fixed at 25 µg/ml, recovery of cellular diI-LDL uptake (Exopolar assay) [4]: 107 nM
B4: 3CX2A06 Fab (Fab, V domains shown)
VH: QVQLVQSGAEVKKPGESLKISCKGSGYSFSNFWIAWVRQMPGKGLEWMGIIDPSDSWTRYSPSFQGQVTISADKSISTAYLQWSSLKASDTAMYYCARGDGQDFDNWGQGTLVTVSS
VL: DIQMTQSPSSLSASVGDRVTITCRASQNINSYLNWYQQKPGKAPKLLIYAASSLQSGVPSRFSGSGSGTDFTLTISSLQPEDFAVYYCLQNYDLPNTFGQGTKVEIKR

- IC50: Fab titrated against PCSK9 fixed at 25 µg/ml, recovery of cellular diI-LDL uptake (Exopolar assay) [5]: 269 nM
B5: 3CX3D02 Fab (Fab, V domains shown)
VH: QVQLVQSGAEVKKPGESLKISCKGSGYSFTNSWIGWVRQMPGKGLEWMGIIYPSDSYTIYSPSFQGQVTISADKSISTAYLQWSSLKASDTAMYYCARGGGYYYALMDVWAQGTLVTVSS
VL: DIQMTQSPSSLSASVGDRVTITCRASQTISTWLNWYQQKPGKAPKLLIYAASSLQSGVPSRFSGSGSGTDFTLTISSLQPEDFATYYCLQDSSLPLTFGQGTKVEIKR
